Assay in all cases: cell-based or functional assay
Assay [1] has as its target hemagglutinin (HA) of influenza A/Singapore/INFIMH-16-0019/2016 H3N2 (Influenza A virus A/Singapore/INFIMH-16-0019/2016 (H3N2)).
For assay [2], the target named is hemagglutinin (HA) of influenza A/Victoria/2570/2019 (2021-22) H1N1 (Influenza A virus A/Victoria/2570/2019 (H1N1)).
The target of assay [3] is hemagglutinin (HA) of influenza B/Phuket/3073/2013 B-Yam (Influenza B virus B/Phuket/3073/2013 (B-Yam)).
Assay [4] deals with hemagglutinin (HA) of influenza A/Guangdong-maonan/2019 (Cell) H1N1 (Influenza A virus A/Guangdong-maonan/2019 (H1N1), (Cell)).
In assay [5] the target is hemagglutinin (HA) of influenza A/Cambodia/e0826360/2020 (2021-22) H3N2 (Influenza A virus A/Cambodia/e0826360/2020 (H3N2)).
Assay [6] has as its target hemagglutinin (HA) of influenza A/Michigan/45/2015 pH1N1 (Influenza A virus A/Michigan/45/2015 (pH1N1)).
For assay [7], the target named is hemagglutinin (HA) of influenza A/California/4/2009 pH1N1 (Influenza A virus A/California/4/2009 (pH1N1)).
Assay [8] concerns the target hemagglutinin (HA) of influenza B/California/12/2015 B-Yam (Influenza B virus B/California/12/2015).
The target in assay [9] is hemagglutinin (HA) of influenza B/Colorado/06/2017 B-Vic (Influenza B virus B/Colorado/06/2017 (B-Vic)).
The target in assay [10] is hemagglutinin (HA) of influenza A/Brisbane/02/2018 H1N1 (Influenza A virus A/Brisbane/02/2018 (H1N1)).
Assay [11] has as its target hemagglutinin (HA) of influenza B/Maryland/15/2016 B-Vic (Influenza B virus B/Maryland/15/2016 (B-Vic)).
The target of assay [12] is hemagglutinin (HA) of influenza B/Washington/02/2019 B-Vic (Influenza B virus B/Washington/02/2019).
The target in assay [13] is hemagglutinin (HA) of influenza A/Hong Kong/2671/2019 (Egg) H3N2 (Influenza A virus A/Hong Kong/2671/2019 (H3N2), (Egg)).
Assay [14] concerns the target hemagglutinin (HA) of influenza A/Kansas/14/2017 H3N2 (Influenza A virus A/Kansas/14/2017 (H3N2)).
The target of assay [15] is hemagglutinin (HA) of influenza A/Guangdong-maonan/2019 (Egg) H1N1 (Influenza A virus A/Guangdong-maonan/2019 (H1N1), (Egg)).
The target of assay [16] is hemagglutinin (HA) of influenza A/Switzerland/9715293/2013 H3N2 (Influenza A virus A/Switzerland/9715293/2013 (H3N2)).
In assay [17] the target is hemagglutinin (HA) of influenza B/Brisbane/60/2008 B-Vic (Influenza B virus B/Brisbane/60/2008 (B-Vic)).
Assay [18] has as its target hemagglutinin (HA) of influenza A/Hong Kong/4801/2014 H3N2 (Influenza A virus A/Hong Kong/4801/2014 (H3N2)).

Consider SAB-176 Lot 4 V3-V12 (antibody), for which the HAI titer (reciprocal dilution) in assay [1] is 512; in assay [2], 256; in assay [3], 128; in assay [4] it was 512; in assay [5] it was 256; in assay [6] it was 512. The HAI titer (reciprocal dilution) in assay [8] is 128; in assay [9], 256; in [10], 512; in [11], 256; in assay [12], 128; in assay [13], 256. The HAI titer (reciprocal dilution) came to 256 in assay [14] and 512 in assay [15]. The HAI titer (Huber virus stock) (reciprocal dilution) in assay [7] was 512. The substance further registered an HAI titer (hVIVO virus stock) (reciprocal dilution) in assay [7] of 512.

SAB-176 Lot 3 V3-V12 (antibody): the HAI titer (reciprocal dilution) in [1] came out at 512; in [2], 256; in [3] it was 128; in assay [4], 512; in assay [5], 256; in [6], 512. In addition, the HAI titer (reciprocal dilution) in assay [8] was 128; in assay [9], 256; in assay [10] it was 512; in assay [11] it was 128; in [12], 64; in assay [13], 256. Besides, the HAI titer (reciprocal dilution) in [14] and in assay [15] was 512 throughout. The same substance came in with an HAI titer (Huber virus stock) (reciprocal dilution) in [7] of 512. In assay [7], the HAI titer (hVIVO virus stock) (reciprocal dilution) turned out to be 512.

Turning to negative control IgG (antibody), the HAI titer (reciprocal dilution) in [16], in assay [1], in [2], in [3], in assay [17] and in assay [4] was < 1 in each case. For the same substance, the HAI titer (reciprocal dilution) in assay [5], in assay [6], in [7], in [8], in assay [9] and in assay [10] was < 1 each time. The HAI titer (reciprocal dilution) in assay [11], in [12], in [13], in assay [14], in assay [18] and in [15] was < 1 each time. In addition, the HAI titer (Huber virus stock) (reciprocal dilution) in assay [7] is < 1. Further, the HAI titer (hVIVO virus stock) (reciprocal dilution) in assay [7] is < 1.

In the case of SAB-176 Lot 2 V3-V5 (antibody), the HAI titer (reciprocal dilution) in [1] was found to be 512; in assay [2] it was 256; in assay [3], 256; in assay [4] it was 512; in assay [5], 256; in assay [6] it was 512. The HAI titer (reciprocal dilution) is 128 in assay [8]; 256 in [9]; 512 in assay [10]; 256 in assay [11]; 128 in assay [12]; 128 in [13]. Moreover, the HAI titer (reciprocal dilution) in assay [14] was 64; in [15], 512. In addition, the HAI titer (Huber virus stock) (reciprocal dilution) in assay [7] worked out at 512. This substance came in with an HAI titer (hVIVO virus stock) (reciprocal dilution) in assay [7] of 1024.

As for SAB-176 Lot 1 V3 (antibody), the HAI titer (reciprocal dilution) in assay [1] came out at 512; in assay [2] it was 256; in [3], 128; in assay [4], 512; in [5], 128; in assay [6] it was 512. In addition, the HAI titer (reciprocal dilution) in assay [8] worked out at 128; in assay [9], 256; in assay [10] it was 512; in assay [11] it was 256; in assay [12], 64; in [13] it was 64. In addition, the figures for the HAI titer (reciprocal dilution) in assay [14] and in assay [15] were 64 and 512, respectively. The HAI titer (Huber virus stock) (reciprocal dilution) in assay [7] came out at 512. This substance had an HAI titer (hVIVO virus stock) (reciprocal dilution) in [7] of 512.

For the origin of these results see patent US20250320279A1, “UNGULATE-DERIVED POLYCLONAL IMMUNOGLOBULIN SPECIFIC FOR INFLUENZA VIRUS AND USES THEREOF” (priority 2021, published 2025).
